In assay [1] the target is HLA-B*07:02. The experiment in a line: IEDB peptide-MHC binding, purified MHC/competitive/fluorescence; filed as Kd, often an IC50 or EC50 that approximates it; ≥ and ≤ were set here for values at or beyond the usual limits of such assays.
The target of assay [2] is HLA-B*51:01. The experiment in a line: IEDB peptide-MHC binding, purified MHC/direct/fluorescence; filed as Kd, often an IC50 or EC50 that approximates it; ≥ and ≤ were set here for values at or beyond the usual limits of such assays. The following applies: source organism: human gammaherpesvirus 4.
In assay [3] the target is HLA-B*51:01. The experiment in a line: IEDB peptide-MHC binding, purified MHC/competitive/fluorescence; filed as Kd, often an IC50 or EC50 that approximates it; ≥ and ≤ were set here for values at or beyond the usual limits of such assays.
The next assay concerns the target HLA-B*27:05. Described as above. The following applies: source organism: Influenza A virus (A/swine/Hong Kong/81/1978(H3N2)).
Assay [4] addresses HLA-A*68:02. The experiment in a line: IEDB peptide-MHC binding, purified MHC/competitive/radioactivity; filed as Kd, often an IC50 or EC50 that approximates it; ≥ and ≤ were set here for values at or beyond the usual limits of such assays. The following applies: source organism: Vaccinia virus WR.
Assay [5] has as its target HLA-A*02:03. The assay is described as above. The following applies: source organism: Vaccinia virus WR.
In a further assay the target is HLA-A*02:06. The description is as above. The following applies: source organism: Vaccinia virus WR.
In another assay the target is HLA-A*02:02. Described as above. The following applies: source organism: Vaccinia virus WR.
Another assay concerns the target HLA-C*03:03. The experiment in a line: IEDB peptide-MHC binding, purified MHC/direct/fluorescence; filed as Kd, often an IC50 or EC50 that approximates it; ≥ and ≤ were set here for values at or beyond the usual limits of such assays. The following applies: source organism: Vaccinia virus WR.
Another assay has as its target HLA-B*46:01. The experiment in a line: IEDB peptide-MHC binding, purified MHC/competitive/fluorescence; filed as Kd, often an IC50 or EC50 that approximates it; ≥ and ≤ were set here for values at or beyond the usual limits of such assays.
For the next assay, the target named is HLA-B*27:03. The description is as above.
In another assay the target is HLA-B*15:01. The assay is described as above.
The next assay deals with HLA-B*15:17. The description is as above. The conditions noted are these: source organism: Zaire ebolavirus.
A further assay addresses HLA-B*57:01. The description is as above.
The next assay addresses HLA-A*02:01. Described as above.
Another assay deals with HLA-B*39:01. The assay is described as above.
In another assay the target is HLA-A*69:01. The assay is described as above.
The target of a further assay is HLA-B*18:01. The description is as above.
The target of a further assay is HLA-A*26:01. The assay is described as above.
Assay [6] deals with HLA-A*68:02. The experiment in a line: IEDB peptide-MHC binding, purified MHC/direct/fluorescence; filed as Kd, often an IC50 or EC50 that approximates it; ≥ and ≤ were set here for values at or beyond the usual limits of such assays.
For assay [7], the target named is HLA-A*03:01. Described as above.
Assay [8] concerns the target HLA-A*02:19. The description is as above.
For assay [9], the target named is HLA-A*02:03. Described as above.
The target in assay [10] is HLA-B*07:02. Described as above. The conditions noted are these: source organism: Sudan ebolavirus - Maleo (1979).
In assay [11] the target is HLA-A*02:11. Described as above.
For another assay, the target named is HLA-A*02:16. The assay is described as above.
Assay [12] addresses HLA-A*02:12. The assay is described as above.
For assay [13], the target named is HLA-A*03:01. The experiment in a line: IEDB peptide-MHC binding, purified MHC/competitive/fluorescence; filed as Kd, often an IC50 or EC50 that approximates it; ≥ and ≤ were set here for values at or beyond the usual limits of such assays.
Assay [14] addresses HLA-A*02:19. The assay is described as above.
In assay [15] the target is HLA-A*02:03. Described as above.
In a further assay the target is HLA-A*29:02. The description is as above.
Assay [16] deals with HLA-A*02:11. Described as above.
Assay [17] concerns the target HLA-A*24:03. Described as above.
Assay [18] concerns the target HLA-A*02:12. The description is as above.
In the next assay the target is HLA-C*06:02. The experiment in a line: IEDB peptide-MHC binding, purified MHC/direct/fluorescence; filed as Kd, often an IC50 or EC50 that approximates it; ≥ and ≤ were set here for values at or beyond the usual limits of such assays.
In another assay the target is HLA-A*11:01. The experiment in a line: IEDB peptide-MHC binding, purified MHC/competitive/fluorescence; filed as Kd, often an IC50 or EC50 that approximates it; ≥ and ≤ were set here for values at or beyond the usual limits of such assays. The following applies: source organism: Influenza A virus (A/swine/Scotland/410440/94(H1N2)).
In the next assay the target is HLA-A*23:01. The experiment in a line: IEDB peptide-MHC binding, purified MHC/direct/fluorescence; filed as Kd, often an IC50 or EC50 that approximates it; ≥ and ≤ were set here for values at or beyond the usual limits of such assays. The conditions noted are these: source organism: Influenza A virus (A/ferret/Maryland/P10-UMD/2008(H9N2)).
Assay [19] addresses HLA-A*24:03. The description is as above. The conditions noted are these: source organism: Influenza A virus (A/ferret/Maryland/P10-UMD/2008(H9N2)).
Setting [20] is: source organism: Escherichia coli str. K-12 substr. MG1655.
Setting [21] is: source organism: Zaire ebolavirus.
[22] abbreviates: source organism: Vibrio cholerae 2740-80.
[23] abbreviates: source organism: Yersinia pestis Antiqua.
The mark [24] stands for this setting: source organism: Influenza A virus (A/Victoria/1968(H3N2)).
Setting [25] is: source organism: Influenza A virus (A/ferret/Maryland/P10-UMD/2008(H9N2)).

Results on eleven sequences are retold here after the Immune Epitope Database (IEDB).

By Kd is commonly meant the constant that tells how readily two partners part at equilibrium. Turning to HPVGEADYFEY, the Kd in the assay with HLA-B*07:02 [1] (source organism: Human herpesvirus 4 strain B95-8) and in the assay with HLA-B*51:01 [2] was no less than 20 µM each time.

APTADVAKI: the Kd with HLA-B*07:02 [1] (setting [20]) was 0.868 µM; with HLA-B*51:01 [3] (setting [20]), no less than 20 µM.

In turn, GRIQDLEKY gave a dissociation constant Kd with HLA-B*27:05 of 0.112 µM.

As to YIYGIPLSL, the dissociation constant Kd in the assay with HLA-A*68:02 [4] was 1.87 µM; with HLA-A*02:03 [5] it was 13.1 µM; in the assay with HLA-A*02:06, 11.5 µM; with HLA-A*02:02 it was 0.46 µM; with HLA-C*03:03, no more than 0.001 µM.

Consider TPSGKRLQI, for which the Kd with HLA-B*46:01 (setting [21]), with HLA-B*27:03 (setting [21]), with HLA-B*15:01 (setting [21]), in the assay with HLA-B*15:17, with HLA-B*57:01 (setting [21]) and in the assay with HLA-A*02:01 (setting [21]) was no less than 20 µM throughout. The equilibrium dissociation constant (Kd) with HLA-B*39:01 (setting [21]), in the assay with HLA-A*69:01 (setting [21]), in the assay with HLA-B*18:01 (setting [21]), with HLA-A*26:01 (setting [21]), with HLA-B*51:01 [3] (setting [21]) and in the assay with HLA-A*68:02 [6] (setting [21]) was no less than 20 µM each time. The Kd with HLA-A*03:01 [7] (setting [21]) was no less than 20 µM; with HLA-A*02:19 [8] (setting [21]), no less than 20 µM; with HLA-A*02:03 [9] (setting [21]), no less than 20 µM; with HLA-B*07:02 [10], 0.0356 µM; with HLA-A*02:11 [11] (setting [21]), no less than 20 µM; with HLA-A*02:16 (setting [21]), no less than 20 µM. Also, the Kd in the assay with HLA-A*02:12 [12] (setting [21]) is no less than 20 µM.

Turning to YEPEMQAQV, the equilibrium dissociation constant (Kd) in the assay with HLA-A*03:01 [13] (setting [22]) was no less than 20 µM; with HLA-B*46:01 (setting [22]) it was no less than 20 µM; in the assay with HLA-A*02:19 [14] (setting [22]), 0.845 µM; in the assay with HLA-B*27:03 (setting [22]) it was no less than 20 µM; with HLA-A*02:03 [15] (setting [22]), no less than 20 µM; with HLA-A*29:02 (setting [22]) it was no less than 20 µM. Further, the dissociation constant Kd in the assay with HLA-B*15:01 (setting [22]), with HLA-B*57:01 (setting [22]), with HLA-A*02:11 [16] (setting [22]), in the assay with HLA-A*02:01 (setting [22]), with HLA-B*39:01 (setting [22]) and with HLA-A*24:03 [17] (setting [22]) was no less than 20 µM in each case. The dissociation constant (Kd) in the assay with HLA-A*02:12 [18] (setting [22]), with HLA-B*18:01 (setting [22]), with HLA-A*26:01 (setting [22]) and with HLA-B*51:01 [3] (setting [22]) was no less than 20 µM throughout.

In the case of RARLWPRSM, in the assay with HLA-C*06:02 (source organism: Mycobacterium tuberculosis variant bovis BCG str. Pasteur 1173P2), the dissociation constant (Kd) worked out at 0.701 µM.

YRTATLRTL: the Kd with HLA-C*06:02 (source organism: human gammaherpesvirus 4) is 0.009 µM.

Regarding PLTNQRYRV, the Kd with HLA-A*03:01 [13] (setting [23]) is no less than 20 µM; in the assay with HLA-B*46:01 (setting [23]), no less than 20 µM; in the assay with HLA-A*02:19 [14] (setting [23]), 0.797 µM; with HLA-B*27:03 (setting [23]) it was no less than 20 µM; with HLA-A*02:03 [15] (setting [23]), no less than 20 µM; with HLA-A*29:02 (setting [23]), no less than 20 µM. For the same sequence, the Kd in the assay with HLA-B*15:01 (setting [23]), with HLA-B*57:01 (setting [23]), with HLA-A*02:11 [16] (setting [23]), in the assay with HLA-A*02:01 (setting [23]), with HLA-B*39:01 (setting [23]) and in the assay with HLA-A*24:03 [17] (setting [23]) was no less than 20 µM in each case. Also, the Kd with HLA-A*02:12 [18] (setting [23]), with HLA-B*18:01 (setting [23]), in the assay with HLA-A*26:01 (setting [23]) and in the assay with HLA-B*51:01 [3] (setting [23]) was no less than 20 µM in each case.

The sequence KVYKTYFEK had a Kd with HLA-A*11:01 of 0.0047 µM.

With NMDKAVKLY, the Kd in the assay with HLA-B*46:01 (setting [24]), with HLA-B*27:03 (setting [24]), with HLA-B*15:01 (setting [24]), in the assay with HLA-B*57:01 (setting [24]), with HLA-A*02:01 (setting [24]) and with HLA-B*39:01 (setting [24]) was no less than 20 µM throughout. The Kd in the assay with HLA-A*69:01 (setting [24]), with HLA-A*26:01 (setting [24]), in the assay with HLA-B*51:01 [3] (setting [24]), with HLA-A*68:02 [6] (setting [25]), with HLA-A*03:01 [7] (setting [25]) and in the assay with HLA-A*02:19 [8] (setting [25]) was no less than 20 µM throughout. In addition, the equilibrium dissociation constant (Kd) with HLA-A*02:03 [9] (setting [25]), with HLA-A*02:11 [11] (setting [25]), in the assay with HLA-A*02:16 (setting [25]), with HLA-A*23:01, with HLA-A*24:03 [19] and with HLA-A*02:12 [12] (setting [25]) was no less than 20 µM throughout.
